Experimental data from publication PMC9586977, “Structure of the pre-mRNA leakage 39-kDa protein reveals a single domain of integrated zf-C3HC and Rsm1 modules” (Scientific Reports, 2022).

B1: ScMlp1_(1–325), N-terminal fragment of Saccharomyces cerevisiae Myosin-like protein 1 (residues 1–325), homodimer (domain or fragment, UniProt Q02455 1-325, looked up)
chain: MSDHDTPMESIQNGENSDERLNAIASFFGCSLEQVKSFDGDVVKHLNDKLLQFNELKSENLKVTVSFDELKASSLKKIDGLKTEMENVIRENDKIRKERNDTFVKFESVENEKMKLSSELEFVKRKLDDLTEEKKETQSNQQRTLKILDERLKEIELVRVENNRSNSECKKLRSTIMDLETKQQGYITNDLNSRTELERKTQELTLLQSNNDWLEKELRSKNEQYLSYRQKTDKVILDIRNELNRLRNDFQMERTNNDVLKQKNNELSKSLQEKLLEIKGLSDSLNSEKQEFSAEMSLKQRLVDLLESQLNAVKEELNSIRELNT
notes: Cloned into NcoI/NotI of pET28a; hexahistidine tag removed with PreScission protease; Homodimer by SEC-MALS (~80 kDa; expected monomer 41 kDa); also called ΔC-ScMlp1; source: E. coli BL21(DE3)-RIL CodonPlus, purified (Ni-NTA, HiTrap Q, Superdex 200)

Assays:
[1] = molecular target: the molecule itself; assay: SEC-MALS; 100 µl of 70 µM ScMlp1(1-325) on Superdex 200 10/300 GL, 0.5 mL/min, 25 °C; 500 mM NaCl, 20 mM HEPES-NaOH pH 7.5, 0.5 mM TCEP
[2] = molecular target: B1; assay: ITC; 1.6 mM ScPml39(77-317) injected (2 µl every 180 s) into 350 µl of 70 µM ScMlp1(1-325) in the chamber; 4 °C; 500 mM NaCl, 20 mM HEPES pH 7.5, 0.5 mM TCEP; three independent measurements; conditions: both partners purified

Binder: B1
- stoichiometry N [1]: 2

B2: ScPml39_(77–317), truncated Saccharomyces cerevisiae pre-mRNA leakage 39-kDa protein (residues 77–317) (domain or fragment, UniProt Q03760 77-317, looked up)
chain: GFRLHDLRALLKRICSIQNYTRHVLIEWDVRWVNPLTLASKGWEPYQSASQSQVPFKCCCCHAIMTIPLLKNGDDVADYTMKLNEKIWNSNIIGNHLQKCPWRENQVDLNKEYYLSSQNLIREIERIHTEIDRIVSGSNEFSLKRNSSRIFHYLSEKEIQKLAFFFDCKDYSLVGLLLLGYTKFQKDDLVQCTACFHRASLKKLEYTEFNGHALWCRYYNKELLPTMLLELIGKEDKLITK
notes: Pml39 (pre-mRNA leakage 39-kDa protein), Saccharomyces cerevisiae, UniProtKB Q03760, residues 77-317 of 334; holds the zf-C3HC (79-189) and Rsm1 (190-311) modules; Cloned into NcoI/NotI of pET28a; hexahistidine tag removed with PreScission protease; also called truncated ScPml39; source: E. coli BL21(DE3)-RIL CodonPlus, purified (Ni-NTA, HiTrap SP, Superdex 200)
- Kd [2]: ~13 µM
- stoichiometry N [2]: 1
